Measured values taken from patent publication US20180194839A1 (Novartis, published 2018).

Tests used:
[1] = biological target: T1, human IL-17A (construct not stated) (human, UniProt Q16552 24-155, limits assumed); assay: cell-based or functional assay
T1 sequence: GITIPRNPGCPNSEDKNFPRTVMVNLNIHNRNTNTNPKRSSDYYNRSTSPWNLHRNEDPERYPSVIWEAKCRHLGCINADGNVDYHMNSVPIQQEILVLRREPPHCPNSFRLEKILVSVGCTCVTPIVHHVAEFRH

[2] = biological target: T2, recombinant human IL-17F (SEQ ID NO: 77) (human, UniProt Q96PD4 31-163); assay: ELISA, coated antigen
T2 construct: homodimer; also called huIL-17F; rhuIL-17F
T2 sequence: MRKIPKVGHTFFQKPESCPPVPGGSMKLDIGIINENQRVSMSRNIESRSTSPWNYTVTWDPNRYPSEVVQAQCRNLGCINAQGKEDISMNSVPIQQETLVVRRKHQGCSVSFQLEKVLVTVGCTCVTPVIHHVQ

[3] = biological target: T3, recombinant cynomolgus IL-17F (SEQ ID NO: 80) (cynomolgus monkey, UniProt Q96PD4 31-163 (human entry), limits assumed); assay: ELISA, coated antigen
T3 construct: also called cynoIL-17F; cyno IL-17F
T3 chain: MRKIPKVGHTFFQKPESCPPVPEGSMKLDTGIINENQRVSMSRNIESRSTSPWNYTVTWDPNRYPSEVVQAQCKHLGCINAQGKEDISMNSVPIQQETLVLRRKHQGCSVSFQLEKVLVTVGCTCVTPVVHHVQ

[4] = biological target: T4, recombinant mouse IL-12 (R&D Systems Cat#419-ML-010/CF) (mouse, UniProt P43431 23-215; P43432 23-335); assay: ELISA, coated cytokine;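 also: antibodies incubated 3 h at room temperature on cytokine-coated plates, binding read out with alkaline phosphatase-conjugated anti-species IgG secondary antibodies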
T4 construct: coated at 0.5 µg/ml; also called mIL-12
T4 sequence (looked up) 1: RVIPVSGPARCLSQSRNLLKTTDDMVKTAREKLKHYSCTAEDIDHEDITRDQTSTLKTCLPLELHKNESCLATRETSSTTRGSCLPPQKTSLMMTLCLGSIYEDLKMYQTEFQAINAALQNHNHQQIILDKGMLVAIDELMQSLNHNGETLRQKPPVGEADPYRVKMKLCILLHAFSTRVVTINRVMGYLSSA
T4 sequence (looked up) 2: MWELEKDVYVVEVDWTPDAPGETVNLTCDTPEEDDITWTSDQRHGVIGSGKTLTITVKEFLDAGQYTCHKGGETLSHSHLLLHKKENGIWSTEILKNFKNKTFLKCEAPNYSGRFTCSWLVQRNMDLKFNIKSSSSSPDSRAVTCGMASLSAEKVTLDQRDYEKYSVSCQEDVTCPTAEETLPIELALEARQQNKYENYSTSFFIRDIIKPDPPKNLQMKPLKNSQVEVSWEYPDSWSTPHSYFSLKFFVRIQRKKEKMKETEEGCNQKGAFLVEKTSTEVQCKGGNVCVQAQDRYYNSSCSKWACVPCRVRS

[5] = biological target: T5, recombinant human IL-3 (R&D Systems Cat#203-IL/CF) (human, UniProt P08700 20-152); assay: ELISA, coated cytokine;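 also: antibodies incubated 3 h at room temperature on cytokine-coated plates, binding read out with alkaline phosphatase-conjugated anti-species IgG secondary antibodies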
T5 construct: also called huIL-3
T5 sequence (looked up): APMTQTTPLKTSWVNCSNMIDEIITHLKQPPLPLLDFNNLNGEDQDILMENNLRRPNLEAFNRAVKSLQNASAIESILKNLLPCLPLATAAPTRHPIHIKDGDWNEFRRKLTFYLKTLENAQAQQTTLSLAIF

[6] = biological target: T6, recombinant human IL-23 (R&D Systems Cat#1290-IL-010/CF) (human, UniProt Q9NPF7 20-189; P29460 23-328); assay: ELISA, coated cytokine;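 also: antibodies incubated 3 h at room temperature on cytokine-coated plates, binding read out with alkaline phosphatase-conjugated anti-species IgG secondary antibodies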
T6 construct: also called huIL-23
T6 sequence (looked up) 1: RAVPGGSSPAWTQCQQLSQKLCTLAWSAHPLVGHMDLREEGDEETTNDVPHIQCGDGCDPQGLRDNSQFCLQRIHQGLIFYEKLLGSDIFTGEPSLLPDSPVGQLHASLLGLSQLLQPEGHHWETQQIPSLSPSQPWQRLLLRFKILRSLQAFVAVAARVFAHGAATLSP
T6 sequence (looked up) 2: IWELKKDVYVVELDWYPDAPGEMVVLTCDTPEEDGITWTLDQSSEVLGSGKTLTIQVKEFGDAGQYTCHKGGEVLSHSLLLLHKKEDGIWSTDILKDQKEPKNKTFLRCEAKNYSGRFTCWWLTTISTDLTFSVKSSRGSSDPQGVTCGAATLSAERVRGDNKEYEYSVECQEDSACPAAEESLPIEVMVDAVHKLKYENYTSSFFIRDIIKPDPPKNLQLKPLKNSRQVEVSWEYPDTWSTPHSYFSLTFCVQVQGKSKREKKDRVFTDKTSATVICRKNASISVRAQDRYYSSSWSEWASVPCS

[7] = biological target: T7, recombinant cynomolgus IL-17A (SEQ ID NO: 79) (cynomolgus monkey, UniProt Q16552 24-155 (human entry), limits assumed); assay: SPR (Biacore), captured antibody, antigen as analyte
T7 construct: also called cynoIL-17A; cyno IL-17A
T7 chain: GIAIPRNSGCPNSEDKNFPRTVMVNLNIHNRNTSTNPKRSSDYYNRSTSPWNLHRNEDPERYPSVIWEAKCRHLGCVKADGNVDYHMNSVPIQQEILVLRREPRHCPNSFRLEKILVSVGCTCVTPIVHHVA

[8] = biological target: T8, recombinant mouse IL-17A/F (R&D Systems Cat#5390-IL) (mouse, UniProt Q62386 26-158; Q7TNI7 29-161, limits assumed); assay: as above
T8 construct: bought heterodimer; also called mIL-17A/F; rmIL-17A/F
T8 sequence (looked up) 1: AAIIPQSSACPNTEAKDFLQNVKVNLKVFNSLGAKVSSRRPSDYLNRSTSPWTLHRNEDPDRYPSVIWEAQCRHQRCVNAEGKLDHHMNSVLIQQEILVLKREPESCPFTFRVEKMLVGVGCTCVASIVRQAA
T8 sequence (looked up) 2: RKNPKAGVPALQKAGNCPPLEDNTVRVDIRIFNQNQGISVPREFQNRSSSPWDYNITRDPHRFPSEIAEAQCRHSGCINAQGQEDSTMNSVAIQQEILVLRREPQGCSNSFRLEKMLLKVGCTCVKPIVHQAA

[9] = biological target: T9, recombinant mouse IL-17A (SEQ ID NO: 83) (mouse, UniProt Q62386 26-158); assay: as above
T9 construct: also called mIL-17A; rmIL-17A
T9 sequence: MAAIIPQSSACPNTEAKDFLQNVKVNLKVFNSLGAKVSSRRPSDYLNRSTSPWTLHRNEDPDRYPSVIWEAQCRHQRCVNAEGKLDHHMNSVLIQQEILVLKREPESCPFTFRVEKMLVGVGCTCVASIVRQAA

B1: XAB4 (antibody, human IgG1, kappa, V domains shown)
VH: EVQLVESGGDLVQPGGSLRLSCAASGFTFSSYWMSWVRQAPGKGLEWVANIKQDGSEKYYVDSVKGRFTISRDNAKNSLYLQMNSLRAEDTAVYYCARDRGSLYYWGQGTLVTVSS
VL: AIQLTQSPSSLSASVGDRVTITCRPSQGINWELAWYQQKPGKAPKLLIYDASSLEQGVPSRFSGSGSGTDFTLTISSLQPEDFATYYCQQFNSYPLTFGGGTKVEIKR
notes: also called MB435 N56Q
[1]
  EC50, in vitro neutralization activity, T = 0 weeks: 0.048 µg/mL
  EC50, in vitro neutralization activity, T = 4 weeks at pH 8, 40°C (forced deamidation): 47 ng/ml
[2]
  binding result: no binding (tested: 1 µg/ml)
[3]
  binding result: no binding (tested: 1 µg/ml)
[4]
  binding result: no binding (tested: 10 µg/ml)
[5]
  binding result: no binding (tested: 10 µg/ml)

B2: XAB1 (antibody, human IgG1, kappa, V domains shown)
VH: EVQLVESGGDLVQPGGSLRLSCAASGFTFSSYWMSWVRQAPGKGLEWVANIKQDGSEKYYVDSVKGRFTISRDNAKNSLYLQMNSLRAEDTAVYYCARDRGSLYYWGQGTLVTVSS
VL: AIQLTQSPSSLSASVGDRVTITCRPSQGIISALAWYQQKPGKAPKLLIYDASSLENGVPSRFSGSGSGTDFTLTISSLQPEDFATYYCQQFNSYPLTFGGGTKVEIKR
notes: human IgG1/kappa monoclonal antibody; also called parental XAB1; XAB1 IgG
[6]
  binding result: no binding (tested: 10 µg/ml)
[7]
  Kd: 0.526 nM
  koff: 0.000113 s⁻¹
[8]
  Kd: 5.09 nM
  koff: 0.000955 s⁻¹
[9]
  Kd: 0.353 nM
  koff: 0.000143 s⁻¹
